Assay [1] addresses T1, rat mGlu2 SNAP-tagged receptor (rat, UniProt P31421 19-872, SNAP tag labelled with SNAP-Lumi4-Tb). Briefly: cell-based or functional assay.
Assay [2] has as its target T1, rat mGlu2 SNAP-tagged receptor. As to the kind of experiment: TR-FRET on HEK-293 cells with SNAP-tagged rat mGlu2, anti-6His-d2; inactive conformation.
Assay [3] has the same target. As to the kind of experiment: TR-FRET on HEK-293 cells with SNAP-tagged rat mGlu2, anti-6His-d2; active conformation.

T1 sequence (P31421 19-872): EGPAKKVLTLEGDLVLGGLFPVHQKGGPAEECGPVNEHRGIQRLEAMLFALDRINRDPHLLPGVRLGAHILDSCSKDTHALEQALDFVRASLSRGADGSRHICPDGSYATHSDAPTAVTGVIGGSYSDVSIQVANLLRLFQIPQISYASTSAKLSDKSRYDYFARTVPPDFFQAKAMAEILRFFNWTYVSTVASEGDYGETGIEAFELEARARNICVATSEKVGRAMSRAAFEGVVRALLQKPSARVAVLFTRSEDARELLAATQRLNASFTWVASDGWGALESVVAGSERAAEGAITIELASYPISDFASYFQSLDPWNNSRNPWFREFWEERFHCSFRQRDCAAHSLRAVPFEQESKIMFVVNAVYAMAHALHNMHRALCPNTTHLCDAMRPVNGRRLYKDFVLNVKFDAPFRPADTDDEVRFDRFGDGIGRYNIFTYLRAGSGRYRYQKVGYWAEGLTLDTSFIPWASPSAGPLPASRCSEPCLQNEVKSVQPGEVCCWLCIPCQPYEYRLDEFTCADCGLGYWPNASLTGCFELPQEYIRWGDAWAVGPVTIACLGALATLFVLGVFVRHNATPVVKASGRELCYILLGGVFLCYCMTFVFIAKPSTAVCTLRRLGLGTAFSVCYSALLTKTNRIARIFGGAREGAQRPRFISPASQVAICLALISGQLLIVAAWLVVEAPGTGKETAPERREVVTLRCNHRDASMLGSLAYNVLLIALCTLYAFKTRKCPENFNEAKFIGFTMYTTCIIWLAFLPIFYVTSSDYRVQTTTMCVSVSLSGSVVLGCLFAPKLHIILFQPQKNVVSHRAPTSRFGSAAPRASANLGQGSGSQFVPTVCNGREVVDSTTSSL

B1: biparatopic IGF1202 (construct IGF1168-linker sequence L1-IGF1159) (bispecific antibody)
chain: QVQLVQSGGGLVQAGGSLRLSCAASVRFFSINTMGWYRQAPGKQRELVADITSSGSTNYADSGKGRFTISRDNAKNTVYLQMNRLKPEDTAVYYCHADYKYTTHNTAWGQGTQVTVSSEPKIPQPQPKPQPQPQPQPQPKPQPKPEPQVQLVQSGGGLVQAGGSLRLSCAASGRTFSSFAMAWFRQAPGKEREFVAAISWSGSTGHADSVKGRFTITRDNAKNTVFLQMNSLKPEDTAVYYCALGKGSSYYYSPSGYDYWGQGTQVTVSSLEHHHHHH
Turning to B1, the PAM effect G protein coupling, pEC50 in assay [1] amounted to 8.81 pEC50. Further, the values for the pKd in assay [2] and in assay [3] were 8.87 pKd and 9.27 pKd, respectively.

B2: IGF-1251 (IGF-1159 GS IGF-1168) (bispecific antibody)
chain: QVQLVQSGGGLVQAGGSLRLSCAASGRTFSSFAMAWFRQAPGKEREFVAAISWSGSTGHADSVKGRFTITRDNAKNTVFLQMNSLKPEDTAVYYCALGKGSSYYYSPSGYDYWGQGTQVTVSSGGGGSGGGGSGGGGSQVQLVQSGGGLVQAGGSLRLSCAASVRFFSINTMGWYRQAPGKQRELVADITSSGSTNYADSGKGRFTISRDNAKNTVYLQMNRLKPEDTAVYYCHADYKYTTHNTAWGQGTQVTVSS
For the molecule B2, the PAM effect G protein coupling, pEC50 in assay [1] is 7.65 pEC50. The pKd came out at 8.54 pKd in assay [2] and 8.99 pKd in assay [3].

B3: IGF-1201 (IGF-1168 GS IGF-1159) (bispecific antibody)
chain: QVQLVQSGGGLVQAGGSLRLSCAASVRFFSINTMGWYRQAPGKQRELVADITSSGSTNYADSGKGRFTISRDNAKNTVYLQMNRLKPEDTAVYYCHADYKYTTHNTAWGQGTQVTVSSGGGGSGGGGSGGGGSQVQLVQSGGGLVQAGGSLRLSCAASGRTFSSFAMAWFRQAPGKEREFVAAISWSGSTGHADSVKGRFTITRDNAKNTVFLQMNSLKPEDTAVYYCALGKGSSYYYSPSGYDYWGQGTQVTVSS
In assay [1], B3 gave a PAM effect G protein coupling, pEC50 of 8.25 pEC50. The values for the pKd in assay [2] and in assay [3] were 8.95 pKd and 9.34 pKd, respectively.

B4: IGF-1252 (IGF-1159 HcAb IGF-1168) (bispecific antibody)
chain: QVQLVQSGGGLVQAGGSLRLSCAASGRTFSSFAMAWFRQAPGKEREFVAAISWSGSTGHADSVKGRFTITRDNAKNTVFLQMNSLKPEDTAVYYCALGKGSSYYYSPSGYDYWGQGTQVTVSSEPKIPQPQPKPQPQPQPQPQPKPQPKPEPQVQLVQSGGGLVQAGGSLRLSCAASVRFFSINTMGWYRQAPGKQRELVADITSSGSTNYADSGKGRFTISRDNAKNTVYLQMNRLKPEDTAVYYCHADYKYTTHNTAWGQGTQVTVSS
Consider B4, for which, in assay [1], the PAM effect G protein coupling, pEC50 was found to be 7.94 pEC50. For the same molecule, the pKd in assay [2] worked out at 8.49 pKd; in assay [3], 8.77 pKd.

B5: IGF-1159 nanobody (VHH)
VHH: QVQLVQSGGGLVQAGGSLRLSCAASGRTFSSFAMAWFRQAPGKEREFVAAISWSGSTGHADSVKGRFTITRDNAKNTVFLQMNSLKPEDTAVYYCALGKGSSYYYSPSGYDYWGQGTQVTVSS
Regarding B5, the “PAM effect G protein coupling, pEC50” value in assay [1] was found to be 6.96 pEC50. Moreover, the pKd in assay [3] was 8.46 pKd.

B6: IGF-1261 (IGF-1168 GS IGF-1168) (VHH)
chain: QVQLVQSGGGLVQAGGSLRLSCAASVRFFSINTMGWYRQAPGKQRELVADITSSGSTNYADSGKGRFTISRDNAKNTVYLQMNRLKPEDTAVYYCHADYKYTTHNTAWGQGTQVTVSSGGGGSGGGGSGGGGSQVQLVQSGGGLVQAGGSLRLSCAASVRFFSINTMGWYRQAPGKQRELVADITSSGSTNYADSGKGRFTISRDNAKNTVYLQMNRLKPEDTAVYYCHADYKYTTHNTAWGQGTQVTVSS
notes: Used His-tagged in the assay
Take B6: the “PAM effect G protein coupling, pEC50” value in assay [1] was determined as 7.62 pEC50. This molecule returned a pKd in assay [3] of 8.51 pKd.

B7: IGF-1262 (IGF-1168 HcAb IGF-1168) (VHH)
chain: QVQLVQSGGGLVQAGGSLRLSCAASVRFFSINTMGWYRQAPGKQRELVADITSSGSTNYADSGKGRFTISRDNAKNTVYLQMNRLKPEDTAVYYCHADYKYTTHNTAWGQGTQVTVSSEPKIPQPQPKPQPQPQPQPQPKPQPKPEPQVQLVQSGGGLVQAGGSLRLSCAASVRFFSINTMGWYRQAPGKQRELVADITSSGSTNYADSGKGRFTISRDNAKNTVYLQMNRLKPEDTAVYYCHADYKYTTHNTAWGQGTQVTVSS
notes: Used His-tagged in the assay
On to B7, for which, in assay [1], the “PAM effect G protein coupling, pEC50” value was 7.2 pEC50. In assay [3], the pKd worked out at 8.23 pKd.

The values above are taken from patent EP4299124A1 (UNIVERSITE DE MONTPELLIER, dated 2024).
